In this assay the target is Pig heart citrate synthase (pig) (UniProt P00889).
Chain of UniProt P00889 (P00889 28-464): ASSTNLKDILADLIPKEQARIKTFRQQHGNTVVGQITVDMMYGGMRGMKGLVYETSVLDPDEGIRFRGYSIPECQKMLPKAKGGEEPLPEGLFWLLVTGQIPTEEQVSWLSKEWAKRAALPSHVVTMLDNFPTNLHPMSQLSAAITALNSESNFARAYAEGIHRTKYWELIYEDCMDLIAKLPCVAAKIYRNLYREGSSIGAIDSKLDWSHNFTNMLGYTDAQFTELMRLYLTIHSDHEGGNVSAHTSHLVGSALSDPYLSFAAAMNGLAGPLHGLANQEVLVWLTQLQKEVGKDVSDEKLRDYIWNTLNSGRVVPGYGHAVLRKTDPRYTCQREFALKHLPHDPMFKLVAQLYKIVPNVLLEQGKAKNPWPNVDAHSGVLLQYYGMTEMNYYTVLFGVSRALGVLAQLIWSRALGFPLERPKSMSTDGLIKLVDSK

Consider “rHtrA1 (HtrA1-ΔTM-Ser255Ala-His6), secreted soluble C-terminal region of Staphylococcus aureus strain COL HtrA1 (domain or fragment)”, for which the reduction of the thermal aggregation of citrate synthase (0.8 µM, 44°C, absorbance/light scattering at 650 nm) by 5 µM rHtrA1 is 30%.

Substance “rHtrA2 (HtrA2-ΔTM-Ser619Ala-His6), secreted soluble C-terminal region of Staphylococcus aureus strain COL HtrA2 (domain or fragment)” displayed a reduction of the thermal aggregation of citrate synthase (0.8 µM, 44°C, absorbance/light scattering at 650 nm) by 5 µM rHtrA2 of 30%.

(Values after article PMC4502909.)
